The assay has as its target myostatin pro peptide (wild type) (human) (UniProt O14793). As to the kind of experiment: cell-based or functional assay.

Sequence of myostatin pro peptide (wild type) (human) (O14793 24-266): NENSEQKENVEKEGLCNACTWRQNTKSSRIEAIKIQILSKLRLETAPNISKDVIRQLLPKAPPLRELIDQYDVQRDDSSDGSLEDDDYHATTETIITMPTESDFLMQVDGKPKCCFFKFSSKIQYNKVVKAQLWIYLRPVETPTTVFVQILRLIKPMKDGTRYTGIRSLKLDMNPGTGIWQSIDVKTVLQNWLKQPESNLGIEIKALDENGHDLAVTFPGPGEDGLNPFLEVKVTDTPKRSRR

With “mammalian Tolloid-like-1 (mTLL-1) (from UniProt O43897 148-1013) (enzyme)”, the fraction of the proteolytically-cleaved myostatin complex active in the reporter assay was > 50%.

These data come from patent US20040138118A1.
